For data set [1], the target named is T1, influenza B polymerase (PA-PB1-PB2 heterotrimer, FluB) (Influenza B virus, UniProt Q5V8Z9;Q5V8Y6;Q5V8X3 1-726;1-752;1-770). Kind of data set: fluorescence anisotropy; 1:1 stoichiometry. The settings on record: protein: recombinant, copies: 1;1;1. Background: In fluorescence polarisation assays a small probe gives low polarisation when free and higher when bound to something large.

In data set [2] the target is T1, influenza B polymerase (PA-PB1-PB2 …). Briefly: FRET / fluorescence titration. The settings on record: protein: recombinant; copies: 1;1;1; label: 3'-FAM-Ex-5 on v5'; 5'-Cy3 on v3' (implied by FRET).
Data set [3] has the same target. Briefly: X-ray crystallography (3.8 A). The conditions noted are these: protein: recombinant, copies: 1;1;1.
[4] abbreviates: label: FAM-Ex-5, 5' hook hairpin on polymerase.

As usually defined, the Kd is the equilibrium constant for the complex coming apart. Take UACCCUCUUGUUACUACU (ssRNA) [c3' 1-18]: in data set [1] (label: FAM-Ex-5, single strand), the dissociation constant (Kd) is under 10 nM.

B1: v5' 1-10 + v3' 1-18 (mixed)
RNA 1: AGUAGUAACA
RNA 2: UAUACCUCUGCUUCUGCU
Take B1: the binding result in data set [2] was “binds”. With AGUAGUAACAAGAGGGUA (ssRNA) [v5' 1-18], the dissociation constant (Kd) in data set [1] (setting [4]) is under 10 nM. In the case of UAUACCUCUGCUUCUGCU (ssRNA) [v3' 1-18], in data set [1] (label: 5'-FAM-Ex-5, single strand), the Kd was under 10 nM.

B2: vRNA promoter v5' 1-14 + v3' 1-18 (crystal) (structured_RNA)
RNA 1: AGUAGUAACAAGAG
RNA 2: UAUACCUCUGCUUCUGCU
modifications: 5'-monophosphate on v5'
With B2, the binding result in data set [3] is “binds”. Regarding AGUAGUAACA (ssRNA) [v5' 1-10], the Kd in data set [1] (label: 3'-FAM-Ex-5, 5' hook hairpin on polymerase) is under 10 nM. Turning to AGCAGAAGCAGAGGUAUA (ssRNA) [c5' 1-18], the dissociation constant (Kd) in data set [1] (setting [4]) is under 10 nM. In the case of AAUCUAUAAUAGC (ssRNA, 5'-m7Gppp cap) [capped 13-mer primer], in data set [3] (single strand), the binding result was “binds”.

(Values after article PMC5399792.)
